Source: patent US20190153103A1

B1: SC91.111 (antibody, V domains shown)
VH: QIQLVQSGPELKKPGETVKISCKASGYTLTTYGMNWVKQAPGKGLKWMGWINTYSGVPAYADDFKGRFAFSLETSASTAYLQINNFKNEDTATYFCARSELRNWYFDVWGTGTTVTVSS
VL: SFVMTQTPKFLLVSAGDRVTITCKASQNMGHNVAWYQQKPGQSPKLLIYYASNRYTGVPDRFTGSGYGTDFTFTISTVQAEDLAVYFCQQDYSSPFTFGSGTKLEIK
B2: SC91.149 (antibody, V domains shown)
VH: QVQLLQPGAELVKPGSSVKVSCKASGYTFTNYWMQWVKQRPGQGLEWIGEIDPSDTYTLYNQKFKGKATLTVDTSSSTAYMQLSSLTSEDSAVYYCARFGYYVDYWGQGTTLTVSS
VL: DVVMTQTPLSLPVSLGDQASISCRSSQSLVHSTGNTYFHWYLQKPGQSPELLIYKVSNRFSGVPDRFRGSGSGTDFTLKISRVEAEDLGVYFCSQSTHVPFTFGSGTKLEIK
B3: SC91.155 (antibody, V domains shown)
VH: QIQLVQSGPELKKPGETVKISCKASGYTFTTYGMNWVKQAPGKGLKWMGWINSYSGVPAYADDFKGRFAFSLETFASTAYLQINNLRDEDTATYFCARSELRNWYFDVWGTGTTVTVSS
VL: SFVMTQTPKFLLVSAGDRVTITCKASQNLGNDVAWYQQKPGQSPRLLIYFASNRYTGVPDRFTGSGYGTDFTFTISTVQAEDLAVYFCQQDYSSPFTFGSGTKLEIK
B4: SC91.160 (antibody, V domains shown)
VH: QIQLVQSGPELKKPGETVKISCKASGYTFTTYGMNWVKQAPGKGLKWMGWINTYSGVPSSADDFKGRFAFSLETSASTAYLLINNLKNEDTATYFCARSELRNWYFDVWGTGTTVTVSS
VL: SFVMTQTPKFLLVSAGDRVTITCKASQNMGHDVAWYQQKPGQSPKLLIYSASNRYTGVPDRFTGSGYGTDFTFTISTVQAEDLAVYFCQQDYSSPFTFGSGTKLEMK
B5: SC91.172 (antibody, V domains shown)
VH: QVQLQQPGADLVKPGTSVKLSCKASGYTFTSYWMQWVKQRPGQGLEWIGEIDPSDTYTMYNQKFKGKATLTVDTSSSTAYMQLSSLTSEDSAVYYCARFGYYVDYWGQGTTLTVSS
VL: DVVMTQTPLSLPVSLGDQASISCRSSQSLVHSTGNTYLHWYLQKAGQSPKLLIYKVSNRFSGVPDRFSGSGSGTDFTLKISRVEAEDLGVYFCSQSTHVPFTFGSGTKLEIK
B6: SC91.187 (antibody, V domains shown)
VH: QVQLQQPGPEFVKPGASVKLSCKASGYTFTSYWVQWVKQRPGQGLEWIGEIDPSDNYTLYNQNFKGKATLTVDTSSSTAYMQLSSLTSEDSAVYYCARFGFYVDYWGQGTTLTVSS
VL: DVVMTQTPLSLPVSLGEQASISCRSSQSLVHSTGNTYLHWYLQKPGQSPKLLIYKVSNRFSGVPDRFSGSGSGTDFTLKISRVEAEDLGVYFCSQSTHVPFTFGSGTKLEIK

These binders were tested against recombinant human BMPR-1A/ALK-3-Fc Chimera (R&D systems Catalog: 315-BR) (human) (UniProt P36894) (assay: ELISA).
Chain of recombinant human BMPR-1A/ALK-3-Fc Chimera (R&D systems Catalog: 315-BR) (human) (P36894 24-152 limits assumed, change not shown): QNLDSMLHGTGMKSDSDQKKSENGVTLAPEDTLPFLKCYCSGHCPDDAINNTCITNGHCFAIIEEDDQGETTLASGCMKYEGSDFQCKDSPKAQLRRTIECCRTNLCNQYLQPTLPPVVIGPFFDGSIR
With B1 the ELISA was 0.077. B2 gave an ELISA of 0.066. Binder B3 has an ELISA of 0.059. In the case of B4, the ELISA is reported as 0.061. In the case of B5, the ELISA is reported as 0.062. B6 was tested, and the ELISA was 0.092.
